Results reported in PMC9338584 (2022).

Target: recombinant lamprey tumor necrosis factor receptor (rL-TNFR) (lamprey)
Experiment: SPR

B1: recombinant Lr-PGRN-S1 (Lethenteron reissneri short-form progranulin S1) (natural protein)
chain: MGAVFSLGLSKEAIAMALPRPLMFVLVAAGLCALVSADRCPDGRFCVSRCCWKFTQYTCCWAGEGEGQGETQGELATVPAQAISATVSKVSSCAGSVCSANGESRCCPLSEGSCCGDGLSCCGKGSTCTTFRGLNLCLPHAEFQDPVATFLSREQQQHQQGGCVDDSGCPAGSECHVASGDHRGQCVSSDALIPWVEKEAALSGAVGAQVVYCGSGQYCRDGQTCCRLATGSWGCCNIPHAICCSDGIHCCPTGHFCLTASGLCARSTLSLPAVEGV
- Kd: 337 nM
